Test results: patent US20250326818A1 (UNIVERSIT T BASEL, published 2025)

Molecular target: T1, CD123 ECD E51T (human, UniProt P26951 19-305)
T1 construct: Recombinant ECD
T1 sequence: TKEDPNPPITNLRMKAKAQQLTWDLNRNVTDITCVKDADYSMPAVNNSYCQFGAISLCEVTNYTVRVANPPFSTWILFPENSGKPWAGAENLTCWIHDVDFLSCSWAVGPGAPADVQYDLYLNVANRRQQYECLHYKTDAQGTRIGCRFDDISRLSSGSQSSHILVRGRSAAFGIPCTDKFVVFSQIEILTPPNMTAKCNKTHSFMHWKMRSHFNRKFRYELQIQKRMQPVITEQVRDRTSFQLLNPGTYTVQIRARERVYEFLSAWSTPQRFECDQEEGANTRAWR
Test: BLI (Octet), biotinylated CD123 ECD captured on streptavidin tips, hIL3 as analyte, level at 250 s normalised to loading
Method: Binding of hIL3 (SinoBiological, PN: 11858-H08H) (analyte) to CD123 ECD wt. and variants (ligands) was performed using Streptavidin capture biosensor (SA) (Sartorius, PN: 18-5019). CD123 ECD wt. and variants were biotinylated using Biotinylation kit Type B (Abeam, PN: ab201796) following manufacturer instructions. Biotinylated CD123 ECD wt. and variants (ligands) were captured on SA tips for 1000 s to achieve a nm shift of 1.5 to 2 nm. Analyte hIL3 was titrated at 7 concentrations from 500 to 7.8 nM. Association to analyte was monitored for 300 s and dissociation for 120 s. Buffer only well was used as reference. No regeneration was performed, and a new set of tips was used for each biotinylated captured ligand. Data were analyzed using the Octet Data Analysis software HT 12.0. Due to the fast on/off nature of the interaction data were analyzed using Steady state analysis. Qualitative representation in FIG. 11 binding level were taken at 250 s association for all concentrations.

B1: hIL3 (ligand, human, UniProt P08700 20-152, looked up)
chain: APMTQTTPLKTSWVNCSNMIDEIITHLKQPPLPLLDFNNLNGEDQDILMENNLRRPNLEAFNRAVKSLQNASAIESILKNLLPCLPLATAAPTRHPIHIKDGDWNEFRRKLTFYLKTLENAQAQQTTLSLAIF
notes: also called Interleukin-3
binding result: binds
